Values belong to the binder of their own block, whether it stands above or below them.
What was measured:
[1] = molecular target: T1, recombinant human CLCF1 (cardiotrophin-like cytokine factor 1), residues 28-225 (UniProt Q9UBD9 28-225); test: yeast display flow cytometry; apparent Kd, ±0.006
T1 chain: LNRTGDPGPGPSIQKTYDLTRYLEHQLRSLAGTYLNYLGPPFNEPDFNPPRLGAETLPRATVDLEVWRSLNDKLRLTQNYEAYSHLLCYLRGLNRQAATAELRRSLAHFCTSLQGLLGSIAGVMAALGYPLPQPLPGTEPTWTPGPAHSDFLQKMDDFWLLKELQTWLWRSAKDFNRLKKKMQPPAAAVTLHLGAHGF

[2] = molecular target: T1, recombinant human CLCF1 …; test: yeast display flow cytometry; apparent Kd, ±0.07
[3] = molecular target: T1, recombinant human CLCF1 …; test: yeast display flow cytometry; apparent Kd, ±5
[4] = molecular target: T1, recombinant human CLCF1 …; test: yeast display flow cytometry; apparent Kd, ±0.02
[5] = molecular target: T1, recombinant human CLCF1 …; test: yeast display flow cytometry; apparent Kd, ±0.4
[6] = molecular target: T1, recombinant human CLCF1 …; test: ELISA; ±6
[7] = molecular target: T2, recombinant human CLCF1 (cardiotrophin-like cytokine factor 1), residues 28-225 (human, UniProt Q9UBD9 28-225); test: microtiter plate-based assay (capture of the CNTFR construct, detection with anti-CLCF1)
T2 construct: Only one recombinant CLCF1 preparation is described; also called CLCF1-His; not shown: His tag (named CLCF1-His, detected with anti-HIS antibody)
T2 sequence: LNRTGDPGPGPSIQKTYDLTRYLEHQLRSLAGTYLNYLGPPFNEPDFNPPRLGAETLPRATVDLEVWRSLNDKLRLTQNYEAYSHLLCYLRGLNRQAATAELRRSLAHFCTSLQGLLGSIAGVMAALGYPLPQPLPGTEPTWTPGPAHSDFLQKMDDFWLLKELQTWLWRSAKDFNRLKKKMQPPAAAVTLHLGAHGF

[8] = molecular target: T1, recombinant human CLCF1 …; test: yeast display flow cytometry; apparent Kd, ±3
[9] = molecular target: T2, recombinant human CLCF1 …; test: yeast display, flow cytometry titration with CLCF1
Description: Directed evolution was used to engineer a soluble CNTFR variant with stronger affinity for CLCF1 and lack of binding to gp130 and LIFR. It was hypothesized that such a molecule would act as an efficient ligand trap and antagonize CLCF1-mediated oncogenic signaling. To develop a high-affinity receptor decoy, DNA encoding the extracellular domain of CNTFR was subjected to random mutagenesis via error-prone PCR. […] The library was screened to enrich for variants with increased CLCF1 binding using flow cytometry. After 3 rounds of screening, T174P and S237F appeared as consensus mutations, with substantial diversity observed at other amino acid positions. To probe additive effects of these mutations, 20 randomly selected distinct clones from the sorted populations were shuffled using the Staggered Extension Process (StEP) method to create a second library. A combination of equilibrium binding and kinetic off-rate screens were used to sort this library to impose increased screening stringency (FIG. 2, panel C). […]
Yeast displaying the CNTFR constructs were incubated with varying concentrations of CLCF1 for 12 h at room temperature to reach equilibrium binding. […] Then samples were washed and analyzed by flow cytometry using BD Accuri flow cytometer. Samples were analyzed on BD Bioscience software, and data were analyzed using FlowJo software (Treestar Inc).

[10] = molecular target: T1, recombinant human CLCF1 …; test: yeast display flow cytometry; apparent Kd, ±0.003
[11] = molecular target: T1, recombinant human CLCF1 …; test: ELISA; ±4
[12] = molecular target: T3, recombinantly produced CNTF (ciliary neurotrophic factor) (Homo sapiens (Human), UniProt P26441 1-200); test: microtiter plate-based binding assay
T3 sequence: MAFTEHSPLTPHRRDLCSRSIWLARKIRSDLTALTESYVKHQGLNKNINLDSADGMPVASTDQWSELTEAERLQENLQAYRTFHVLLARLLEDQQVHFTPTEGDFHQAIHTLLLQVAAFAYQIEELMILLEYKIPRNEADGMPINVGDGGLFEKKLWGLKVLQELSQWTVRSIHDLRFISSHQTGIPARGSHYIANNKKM

[13] = molecular target: T4, mouse CLCF1 (mouse, UniProt Q9QZM3 28-225); test: microtiter plate-based binding assay
T4 sequence (looked up): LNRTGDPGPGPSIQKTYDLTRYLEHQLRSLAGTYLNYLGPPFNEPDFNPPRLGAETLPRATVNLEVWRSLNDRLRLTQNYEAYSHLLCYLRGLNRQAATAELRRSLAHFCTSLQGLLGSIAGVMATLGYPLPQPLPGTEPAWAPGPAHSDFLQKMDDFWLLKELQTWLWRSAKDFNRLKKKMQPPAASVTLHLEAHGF

[14] = molecular target: T5, mouse CLCF1 (mouse, UniProt Q9QZM3 28-225); test: ELISA; ±7
T5 chain: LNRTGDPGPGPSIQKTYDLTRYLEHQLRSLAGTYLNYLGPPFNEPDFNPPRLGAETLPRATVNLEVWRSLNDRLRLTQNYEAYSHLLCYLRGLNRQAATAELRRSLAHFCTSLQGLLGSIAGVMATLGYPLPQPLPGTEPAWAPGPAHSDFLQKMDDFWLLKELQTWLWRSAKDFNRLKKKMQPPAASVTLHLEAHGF

- Kd [1]: 49 pM
B1: Variant 3 (T174P, S237F, I287F) (protein)
chain: MAAPVPWACCAVLAAAAAVVYAQRHSPQEAPHVQYERLGSDVTLPCGTANWDAAVTWRVNGTDLAPDLLNGSQLVLHGLELGHSGLYACFHRDSWHLRHQVLLHVGLPPREPVLSCRSNTYPKGFYCSWHLPTPTYIPNTFNVTVLHGSKIMVCEKDPALKNRCHIRYMHLFSPIKYKVSISVSNALGHNATAITFDEFTIVKPDPPENVVARPVPSNPRRLEVTWQTPSTWPDPEFFPLKFFLRYRPLILDQWQHVELSDGTAHTITDAYAGKEYIIQVAAKDNEFGTWSDWSVAAHATPWTEEPRHLTTEAQAAETTTSTTSSLAPPPTTKICDPGELGSGGGPSAPFLVSVPITLALAAAAATASSLLI

- Kd [2]: 40 pM
B2: Variant 5 (S237F, I287F) (protein)
chain: MAAPVPWACCAVLAAAAAVVYAQRHSPQEAPHVQYERLGSDVTLPCGTANWDAAVTWRVNGTDLAPDLLNGSQLVLHGLELGHSGLYACFHRDSWHLRHQVLLHVGLPPREPVLSCRSNTYPKGFYCSWHLPTPTYIPNTFNVTVLHGSKIMVCEKDPALKNRCHIRYMHLFSTIKYKVSISVSNALGHNATAITFDEFTIVKPDPPENVVARPVPSNPRRLEVTWQTPSTWPDPEFFPLKFFLRYRPLILDQWQHVELSDGTAHTITDAYAGKEYIIQVAAKDNEFGTWSDWSVAAHATPWTEEPRHLTTEAQAAETTTSTTSSLAPPPTTKICDPGELGSGGGPSAPFLVSVPITLALAAAAATASSLLI

- Kd [6]: 75 pM
- binding result [7]: binds
B6: soluble eCNTFR with a C-terminal hexahistidine tag (receptor)
chain: QRHSPQEAPHVQYERLGSDVTLPCGTANWDAAVTWRVNGTDLAPDLLNGSQLVLHGLELGHSGLYACFHRDSWHLRHQVLLHVGLPPQEPVLSCRSNTYPKGFYCSWHLPTPTYIPNTFNVTVLHGSKIMVCEKDPALKNRCHIRYMHLFSPIKHNVSISVSNALGHNATAITFDEFTIVKPDPPENVVARPVPSNPRRLEVTWQTPSTWPDPEFFPLKFFLRYRPLILDQWQHVELSDGTAHTIAAAYAGKEYIIQVAAKDNEFGTWSDWSVAAHATPWTEEPRHLTTEAQAAETTTSTTSSLAPPPTTKICDPGELGS
notes: also called eCNTFR-His; not shown: C-terminal hexahistidine tag

- Kd [8]: 19 pM
- Kd [9]: 20 pM
- Kd [10]: 19 pM
B7: yeast-displayed CNTFR variant 4 (R110Q, T174P, S237F, I287F) (receptor)
chain: AVVYAQRHSPQEAPHVQYERLGSDVTLPCGTANWDAAVTWRVNGTDLAPDLLNGSQLVLHGLELGHSGLYACFHRDSWHLRHQVLLHVGLPPQEPVLSCRSNTYPKGFYCSWHLPTPTYIPNTFNVTVLHGSKIMVCEKDPALKNRCHIRYMHLFSPIKYKVSISVSNALGHNATAITFDEFTIVKPDPPENVVARPVPSNPRRLEVTWQTPSTWPDPEFFPLKFFLRYRPLILDQWQHVELSDGTAHTITDAYAGKEYIIQVAAKDNEFGTWSDWSVAAHATPWTEEPRHLTTEAQAAETTTSTTSSLAPPPTTKICDPGELGS
notes: not shown: Aga2p fusion partner and linkers of the pCTCON2 yeast display plasmid; c-Myc tag used to detect expression

- Kd [11]: 63 pM
- binding result [7]: binds
- binding result [12]: no binding
- binding result [13]: binds
- Kd [14]: 131 pM
B8: soluble eCNTFR fused to an antibody Fc domain (Fc fusion)
chain: QRHSPQEAPHVQYERLGSDVTLPCGTANWDAAVTWRVNGTDLAPDLLNGSQLVLHGLELGHSGLYACFHRDSWHLRHQVLLHVGLPPQEPVLSCRSNTYPKGFYCSWHLPTPTYIPNTFNVTVLHGSKIMVCEKDPALKNRCHIRYMHLFSPIKHNVSISVSNALGHNATAITFDEFTIVKPDPPENVVARPVPSNPRRLEVTWQTPSTWPDPEFFPLKFFLRYRPLILDQWQHVELSDGTAHTIAAAYAGKEYIIQVAAKDNEFGTWSDWSVAAHATPWTEEPRHLTTEAQAAETTTSTTSSLAPPPTTKICDPGELGSRRLEPRGPTIKPCPPCKCPAPNLLGGPSVFIFPPKIKDVLMISLSPIVTCVVVDVSEDDPDVQISWFVNNVEVHTAQTQTHREDYNSTLRVVSALPIQHQDWMSGKEFKCKVNNKDLPAPIERTISKPKGSVRAPQVYVLPPPEEEMTKKQVTLTCMVTDFMPEDIYVEWTNNGKTELNYKNTEPVLDSDGSYFMYSKLRVEKKNWVERNSYSCSVVHEGLHNHHTTKSFSRTPGK
notes: The tie is the identical set of eight mutations plus an Fc domain; also called eCNTFR-Fc

Continued, binder first:

B3: Neg sort (R110Q, T174P, Y177H, K178N, S237F, I287F) (protein)
chain: MAAPVPWACCAVLAAAAAVVYAQRHSPQEAPHVQYERLGSDVTLPCGTANWDAAVTWRVNGTDLAPDLLNGSQLVLHGLELGHSGLYACFHRDSWHLRHQVLLHVGLPPQEPVLSCRSNTYPKGFYCSWHLPTPTYIPNTFNVTVLHGSKIMVCEKDPALKNRCHIRYMHLFSPIKHNVSISVSNALGHNATAITFDEFTIVKPDPPENVVARPVPSNPRRLEVTWQTPSTWPDPEFFPLKFFLRYRPLILDQWQHVELSDGTAHTITDAYAGKEYIIQVAAKDNEFGTWSDWSVAAHATPWTEEPRHLTTEAQAAETTTSTTSSLAPPPTTKICDPGELGSGGGPSAPFLVSVPITLALAAAAATASSLLI
- Kd [3]: 14 pM

B4: Variant 2 (T174P, S237F) (protein)
chain: MAAPVPWACCAVLAAAAAVVYAQRHSPQEAPHVQYERLGSDVTLPCGTANWDAAVTWRVNGTDLAPDLLNGSQLVLHGLELGHSGLYACFHRDSWHLRHQVLLHVGLPPREPVLSCRSNTYPKGFYCSWHLPTPTYIPNTFNVTVLHGSKIMVCEKDPALKNRCHIRYMHLFSPIKYKVSISVSNALGHNATAITFDEFTIVKPDPPENVVARPVPSNPRRLEVTWQTPSTWPDPEFFPLKFFLRYRPLILDQWQHVELSDGTAHTITDAYAGKEYIIQVAAKDNEIGTWSDWSVAAHATPWTEEPRHLTTEAQAAETTTSTTSSLAPPPTTKICDPGELGSGGGPSAPFLVSVPITLALAAAAATASSLLI
- Kd [4]: 890 pM

B5: Variant 1 (S237F) (protein)
chain: MAAPVPWACCAVLAAAAAVVYAQRHSPQEAPHVQYERLGSDVTLPCGTANWDAAVTWRVNGTDLAPDLLNGSQLVLHGLELGHSGLYACFHRDSWHLRHQVLLHVGLPPREPVLSCRSNTYPKGFYCSWHLPTPTYIPNTFNVTVLHGSKIMVCEKDPALKNRCHIRYMHLFSTIKYKVSISVSNALGHNATAITFDEFTIVKPDPPENVVARPVPSNPRRLEVTWQTPSTWPDPEFFPLKFFLRYRPLILDQWQHVELSDGTAHTITDAYAGKEYIIQVAAKDNEIGTWSDWSVAAHATPWTEEPRHLTTEAQAAETTTSTTSSLAPPPTTKICDPGELGSGGGPSAPFLVSVPITLALAAAAATASSLLI
- Kd [5]: 41000 pM

Source: patent US20220331401A1 (Stanford University, published 2022)
